Patent US5710022, “Nuclear mitotic phosphoprotein” (Board of Regents of the University of Texas System, dated 1998)

How the values were obtained:
[1] = biological target: T1, purified p56-RB (Homo sapiens (Human), UniProt P06400); assay: blot of purified MBP fusion proteins probed with the Rb-sandwich
T1 sequence: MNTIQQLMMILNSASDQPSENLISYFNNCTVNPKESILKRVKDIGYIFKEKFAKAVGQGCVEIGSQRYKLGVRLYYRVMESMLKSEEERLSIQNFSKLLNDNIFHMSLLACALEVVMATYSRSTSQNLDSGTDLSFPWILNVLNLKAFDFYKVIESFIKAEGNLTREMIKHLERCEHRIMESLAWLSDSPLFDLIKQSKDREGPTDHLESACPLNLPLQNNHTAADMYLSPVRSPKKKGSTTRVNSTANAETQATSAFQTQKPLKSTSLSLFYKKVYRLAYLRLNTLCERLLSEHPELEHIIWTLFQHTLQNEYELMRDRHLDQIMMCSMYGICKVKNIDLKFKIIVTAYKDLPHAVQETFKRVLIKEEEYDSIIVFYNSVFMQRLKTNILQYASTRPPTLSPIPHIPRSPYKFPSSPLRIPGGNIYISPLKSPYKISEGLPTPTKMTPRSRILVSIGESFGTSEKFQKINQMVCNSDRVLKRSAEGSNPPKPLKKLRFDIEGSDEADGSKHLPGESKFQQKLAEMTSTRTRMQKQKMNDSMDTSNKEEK

[2] = biological target: T1, purified p56-RB; assay: blot of purified MBP fusion proteins probed with the Rb-sandwich; the faint band in lane 3 is called an artifact in paragraph 24
Text: (§1) (A) Two identical blots containing seven purified MBP fusion proteins were probed with either the "Rb-sandwich" (lanes 1–7) or with an antibody to MBP (New England Biolabs) (lanes 8–14). […] (B) Similarly, two identical blots of the purified GST-fusion proteins were probed with either the "Rb-sandwich" (lanes 15–17) or with an antibody to GST (lanes 18–20). […] (C) A diagram of the different constructs used in this experiment. […] (D) Sequence comparison of the Rb-binding region of mitosin with the Rb-binding domain of E2F-1 (in bold letters) and neighboring residues (SEQ. ID NOS: 3 and 4). […] Dashed lines indicate conserved residues and solid lines indicate identical residues.

[3] = biological target: T1, purified p56-RB; assay: blot of purified GST fusion proteins probed with the Rb-sandwich (figure legend)
Text: as §1

B1: MBP-T antigen (other)
chain: MDKVLNREESLQLMDLLGLERSAWGNIPLMRKAYLKKCKEFHPDKGGDEEKMKKMNTLYKKMEDGVKYAHQPDFGGFWDATEIPTYGTDEWEQWWNAFNEENLFCSEEMPSSDDEATADSQHSTPPKKKRKVEDPKDFPSELLSFLSHAVFSNRTLACFAIYTTKEKAALLYKKIMEKYSVTFISRHNSYNHNILFFLTPHRHRVSAINNYAQKLCTFSFLICKGVNKEYLMYSALTRDPFSVIEESLPGGLKEHDFNPEEAEETKQVSWKLVTEYAMETKCDDVLLLLGMYLEFQYSFE
binding result [1]: binds

B2: MBP-10/NI (other)
chain: LGPVVPGPSPIPSVTEKRLSSGQNKASGKRQRSSGIWENGGGPTPATPESFSKKSKKAVMSGIHPAEDTEGTEFEPEGLPEVVKKGFADIPTGKTSPYILRRTTMATRTSPRLAAQKLALSPLSLGKENLAESSKPTAGGSRSQKVKVAQRSPVDSGTILREPTTKSVPVNNLPERSPTDSPREGLRVKRGRLVPSPKAGLESKGSENCKVQ
binding result [1]: binds

B3: MBP-10/KN (other)
chain: LAGELQLLLEEIKSSKDQLKELTLENSELKKSLDCMHKDQVEKEGKVREEIAEYQLRLHEAEKKHQALLLDTNKQYEVEIQTYREKLTSKEECLSSQKLEIDLLKSSKEELNNSLKATTQILEELKKTKMDNLKYVNQLKKENERAQGKMKLLIKSCKQLEEEKEILQKELSQLQAAQEKQKTGTVMDTKVDELTTEIKELKETLEEKTKEADEYLDKYCSLLISHEKLEKAKEMLETQVAHLCSQQSKQDSRGSPLLGPVVPGPSPIPSVTEKRLSSGQNKASGKRQRSSGIWENGGGPTPATPESFSKKSKKAVMSGIHPAEDTEGTEFEPEGLPEVVKKGFADIPTGKTSPYILRRTTMATRTSPRLAAQKLALSPLSLGKENLAESSKPTAGGSRSQKVKVAQRSPVDSGTILREPTTKSVPVNNLPERSPTDSPREGLRVKRGRLVPSPKAGLESKGSENCKVQ
binding result [1]: binds

B4: MBP-10/H (other)
chain: LLQGLDEAKNNYIVLQSSVNGLIQEVEDGKQKLEKKDEEISRLKNQIQDQEQLVSKLSQVEGEHQLWKEQNLELRNLTVELEQKIQVLQSKNASLQDTLEVLQSSYKNLENELELTKMDKMSFVEKVNKMTAKETELQREMHEMAQKTAELQEELSGEKNRLAGELQLLLEEIKSSKDQLKELTLENSELKKSLDCMHKDQVEKEGKVREEIAEYQLRLHEAEKKHQALLLDTNKQYEVEIQTYREKLTSKEECLSSQKLEIDLLKSSKEELNNSLKATTQILEELKKTKMDNLKYVNQLKKENERAQGKMKLLIKSCKQLEEEKEILQKELSQLQAAQEKQKTGTVMDTKVDELTTEIKELKETLEEKTKEADEYLDKYCSLLISHEKLEKAKEMLETQVAHLCSQQSKQDSRGSPLLGPVVPGPSPIPSVTEKRLSSGQNKA
binding result [2]: no binding

B5: MBP-10/NB (other)
chain: LLQGLDEAKNNYIVLQSSVNGLIQEVEDGKQKLEKKDEEISRLKNQIQDQEQLVSKLSQVEGEHQLWKEQNLELRNLTVELEQKIQVLQSKNASLQDTLEVLQSSYKNLENELELTKMDKMSFVEKVNKMTAKETELQREMHEMAQKTAELQEELSGEKNRLAGELQLLLEEIKSSKDQLKELTLENSE
binding result [1]: no binding

MSGIHPAEDTEGTEFEPEGLPEVVKKGFADIPTGKTSPYILRRTTM (other) [GST-1045]
binding result [3]: binds

B6: MBP-10 (other)
chain: LLQGLDEAKNNYIVLQSSVNGLIQEVEDGKQKLEKKDEEISRLKNQIQDQEQLVSKLSQVEGEHQLWKEQNLELRNLTVELEQKIQVLQSKNASLQDTLEVLQSSYKNLENELELTKMDKMSFVEKVNKMTAKETELQREMHEMAQKTAELQEELSGEKNRLAGELQLLLEEIKSSKDQLKELTLENSELKKSLDCMHKDQVEKEGKVREEIAEYQLRLHEAEKKHQALLLDTNKQYEVEIQTYREKLTSKEECLSSQKLEIDLLKSSKEELNNSLKATTQILEELKKTKMDNLKYVNQLKKENERAQGKMKLLIKSCKQLEEEKEILQKELSQLQAAQEKQKTGTVMDTKVDELTTEIKELKETLEEKTKEADEYLDKYCSLLISHEKLEKAKEMLETQVAHLCSQQSKQDSRGSPLLGPVVPGPSPIPSVTEKRLSSGQNKASGKRQRSSGIWENGGGPTPATPESFSKKSKKAVMSGIHPAEDTEGTEFEPEGLPEVVKKGFADIPTGKTSPYILRRTTMATRTSPRLAAQKLALSPLSLGKENLAESSKPTAGGSRSQKVKVAQRSPVDSGTILREPTTKSVPVNNLPERSPTDSPREGLRVKRGRLVPSPKAGLESKGSENCKVQ
binding result [1]: binds
